In patent US20090291890A1 (published 2009):

Biological target: Factor X (FX) (Homo sapiens (Human)) (UniProt P00742)
Sequence (P00742 41-488 limits assumed): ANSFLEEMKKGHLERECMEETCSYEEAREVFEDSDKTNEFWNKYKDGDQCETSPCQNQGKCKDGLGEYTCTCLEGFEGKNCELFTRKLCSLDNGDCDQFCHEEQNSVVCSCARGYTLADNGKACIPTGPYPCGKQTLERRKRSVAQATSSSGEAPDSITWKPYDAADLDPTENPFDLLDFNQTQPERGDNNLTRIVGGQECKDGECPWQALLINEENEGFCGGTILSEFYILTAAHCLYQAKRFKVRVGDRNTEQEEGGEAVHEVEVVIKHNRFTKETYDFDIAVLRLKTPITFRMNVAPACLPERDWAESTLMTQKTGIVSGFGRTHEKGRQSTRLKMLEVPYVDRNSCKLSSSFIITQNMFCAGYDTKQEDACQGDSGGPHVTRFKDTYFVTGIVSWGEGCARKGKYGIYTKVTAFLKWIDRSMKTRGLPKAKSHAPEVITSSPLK

| kcat/KM, TF-Dependent Indirect Assay [M⁻¹ s⁻¹] | Binder |
| --- | --- |
| 1.14e+07 | FVIIa variant Q286E (enzyme) ANAFLEELRPGSLERECKEEQCSFEEAREIFKDAERTKLFWISYSDGDQCASSPCQNGGSCKDQLQSYICFCLPAFEGRNCETHKDDQLICVNENGGCEQYCSDHTGTKRSCRCHEGYSLLADGVSCTPTVEYPCGKIPILEKRNASKPQGRIVGGKVCPKGECPWQVLLLVNGAQLCGGTLINTIWVVSAAHCFDKIKNWRNLIAVLGEHDLSEHDGDEQSRRVAQVIIPSTYVPGTTNHDIALLRLHQPVVLTDHVVPLCLPERTFSERTLAFVRFSLVSGWGELLDRGATALELMVLNVPRLMTQDCLQQSRKVGDSPNITEYMFCAGYSDGSKDSCKGDSGGPHATHYRGTWYLTGIVSWGQGCATVGHFGVYTRVSQYIEWLQKLMRSEPRPGVLLRAPFP |
| 4.74e+07 | FVIIa variant H216S (enzyme) ANAFLEELRPGSLERECKEEQCSFEEAREIFKDAERTKLFWISYSDGDQCASSPCQNGGSCKDQLQSYICFCLPAFEGRNCETHKDDQLICVNENGGCEQYCSDHTGTKRSCRCHEGYSLLADGVSCTPTVEYPCGKIPILEKRNASKPQGRIVGGKVCPKGECPWQVLLLVNGAQLCGGTLINTIWVVSAAHCFDKIKNWRNLIAVLGEHDLSESDGDEQSRRVAQVIIPSTYVPGTTNHDIALLRLHQPVVLTDHVVPLCLPERTFSERTLAFVRFSLVSGWGQLLDRGATALELMVLNVPRLMTQDCLQQSRKVGDSPNITEYMFCAGYSDGSKDSCKGDSGGPHATHYRGTWYLTGIVSWGQGCATVGHFGVYTRVSQYIEWLQKLMRSEPRPGVLLRAPFP |
| 8.55e+07 | FVIIa variant Q286A (enzyme) ANAFLEELRPGSLERECKEEQCSFEEAREIFKDAERTKLFWISYSDGDQCASSPCQNGGSCKDQLQSYICFCLPAFEGRNCETHKDDQLICVNENGGCEQYCSDHTGTKRSCRCHEGYSLLADGVSCTPTVEYPCGKIPILEKRNASKPQGRIVGGKVCPKGECPWQVLLLVNGAQLCGGTLINTIWVVSAAHCFDKIKNWRNLIAVLGEHDLSEHDGDEQSRRVAQVIIPSTYVPGTTNHDIALLRLHQPVVLTDHVVPLCLPERTFSERTLAFVRFSLVSGWGALLDRGATALELMVLNVPRLMTQDCLQQSRKVGDSPNITEYMFCAGYSDGSKDSCKGDSGGPHATHYRGTWYLTGIVSWGQGCATVGHFGVYTRVSQYIEWLQKLMRSEPRPGVLLRAPFP |
| 1.65e+07 | FVIIa variant Q286V (enzyme) ANAFLEELRPGSLERECKEEQCSFEEAREIFKDAERTKLFWISYSDGDQCASSPCQNGGSCKDQLQSYICFCLPAFEGRNCETHKDDQLICVNENGGCEQYCSDHTGTKRSCRCHEGYSLLADGVSCTPTVEYPCGKIPILEKRNASKPQGRIVGGKVCPKGECPWQVLLLVNGAQLCGGTLINTIWVVSAAHCFDKIKNWRNLIAVLGEHDLSEHDGDEQSRRVAQVIIPSTYVPGTTNHDIALLRLHQPVVLTDHVVPLCLPERTFSERTLAFVRFSLVSGWGVLLDRGATALELMVLNVPRLMTQDCLQQSRKVGDSPNITEYMFCAGYSDGSKDSCKGDSGGPHATHYRGTWYLTGIVSWGQGCATVGHFGVYTRVSQYIEWLQKLMRSEPRPGVLLRAPFP |
| 5.98e+07 | FVIIa variant H216A (enzyme) ANAFLEELRPGSLERECKEEQCSFEEAREIFKDAERTKLFWISYSDGDQCASSPCQNGGSCKDQLQSYICFCLPAFEGRNCETHKDDQLICVNENGGCEQYCSDHTGTKRSCRCHEGYSLLADGVSCTPTVEYPCGKIPILEKRNASKPQGRIVGGKVCPKGECPWQVLLLVNGAQLCGGTLINTIWVVSAAHCFDKIKNWRNLIAVLGEHDLSEADGDEQSRRVAQVIIPSTYVPGTTNHDIALLRLHQPVVLTDHVVPLCLPERTFSERTLAFVRFSLVSGWGQLLDRGATALELMVLNVPRLMTQDCLQQSRKVGDSPNITEYMFCAGYSDGSKDSCKGDSGGPHATHYRGTWYLTGIVSWGQGCATVGHFGVYTRVSQYIEWLQKLMRSEPRPGVLLRAPFP |
| 4.64e+07 | FVIIa variant Q286S (enzyme) ANAFLEELRPGSLERECKEEQCSFEEAREIFKDAERTKLFWISYSDGDQCASSPCQNGGSCKDQLQSYICFCLPAFEGRNCETHKDDQLICVNENGGCEQYCSDHTGTKRSCRCHEGYSLLADGVSCTPTVEYPCGKIPILEKRNASKPQGRIVGGKVCPKGECPWQVLLLVNGAQLCGGTLINTIWVVSAAHCFDKIKNWRNLIAVLGEHDLSEHDGDEQSRRVAQVIIPSTYVPGTTNHDIALLRLHQPVVLTDHVVPLCLPERTFSERTLAFVRFSLVSGWGSLLDRGATALELMVLNVPRLMTQDCLQQSRKVGDSPNITEYMFCAGYSDGSKDSCKGDSGGPHATHYRGTWYLTGIVSWGQGCATVGHFGVYTRVSQYIEWLQKLMRSEPRPGVLLRAPFP |
| 6.51e+07 | FVIIa variant H216K (enzyme) ANAFLEELRPGSLERECKEEQCSFEEAREIFKDAERTKLFWISYSDGDQCASSPCQNGGSCKDQLQSYICFCLPAFEGRNCETHKDDQLICVNENGGCEQYCSDHTGTKRSCRCHEGYSLLADGVSCTPTVEYPCGKIPILEKRNASKPQGRIVGGKVCPKGECPWQVLLLVNGAQLCGGTLINTIWVVSAAHCFDKIKNWRNLIAVLGEHDLSEKDGDEQSRRVAQVIIPSTYVPGTTNHDIALLRLHQPVVLTDHVVPLCLPERTFSERTLAFVRFSLVSGWGQLLDRGATALELMVLNVPRLMTQDCLQQSRKVGDSPNITEYMFCAGYSDGSKDSCKGDSGGPHATHYRGTWYLTGIVSWGQGCATVGHFGVYTRVSQYIEWLQKLMRSEPRPGVLLRAPFP |
| 5.44e+07 | FVIIa variant Q286K (enzyme) ANAFLEELRPGSLERECKEEQCSFEEAREIFKDAERTKLFWISYSDGDQCASSPCQNGGSCKDQLQSYICFCLPAFEGRNCETHKDDQLICVNENGGCEQYCSDHTGTKRSCRCHEGYSLLADGVSCTPTVEYPCGKIPILEKRNASKPQGRIVGGKVCPKGECPWQVLLLVNGAQLCGGTLINTIWVVSAAHCFDKIKNWRNLIAVLGEHDLSEHDGDEQSRRVAQVIIPSTYVPGTTNHDIALLRLHQPVVLTDHVVPLCLPERTFSERTLAFVRFSLVSGWGKLLDRGATALELMVLNVPRLMTQDCLQQSRKVGDSPNITEYMFCAGYSDGSKDSCKGDSGGPHATHYRGTWYLTGIVSWGQGCATVGHFGVYTRVSQYIEWLQKLMRSEPRPGVLLRAPFP |
| 2.44e+07 | FVIIa variant Q286T (enzyme) ANAFLEELRPGSLERECKEEQCSFEEAREIFKDAERTKLFWISYSDGDQCASSPCQNGGSCKDQLQSYICFCLPAFEGRNCETHKDDQLICVNENGGCEQYCSDHTGTKRSCRCHEGYSLLADGVSCTPTVEYPCGKIPILEKRNASKPQGRIVGGKVCPKGECPWQVLLLVNGAQLCGGTLINTIWVVSAAHCFDKIKNWRNLIAVLGEHDLSEHDGDEQSRRVAQVIIPSTYVPGTTNHDIALLRLHQPVVLTDHVVPLCLPERTFSERTLAFVRFSLVSGWGTLLDRGATALELMVLNVPRLMTQDCLQQSRKVGDSPNITEYMFCAGYSDGSKDSCKGDSGGPHATHYRGTWYLTGIVSWGQGCATVGHFGVYTRVSQYIEWLQKLMRSEPRPGVLLRAPFP |
| 6.04e+06 | FVIIa variant Q286D (enzyme) ANAFLEELRPGSLERECKEEQCSFEEAREIFKDAERTKLFWISYSDGDQCASSPCQNGGSCKDQLQSYICFCLPAFEGRNCETHKDDQLICVNENGGCEQYCSDHTGTKRSCRCHEGYSLLADGVSCTPTVEYPCGKIPILEKRNASKPQGRIVGGKVCPKGECPWQVLLLVNGAQLCGGTLINTIWVVSAAHCFDKIKNWRNLIAVLGEHDLSEHDGDEQSRRVAQVIIPSTYVPGTTNHDIALLRLHQPVVLTDHVVPLCLPERTFSERTLAFVRFSLVSGWGDLLDRGATALELMVLNVPRLMTQDCLQQSRKVGDSPNITEYMFCAGYSDGSKDSCKGDSGGPHATHYRGTWYLTGIVSWGQGCATVGHFGVYTRVSQYIEWLQKLMRSEPRPGVLLRAPFP |
